The text below walks through data of publication PMC7679967 (Protein Science : A Publication of the Protein Society, 2020).

This test concerns the target human Hsp90β (HSP90AB1) (human, UniProt P08238 1-724). Description: ITC.

Sequence of human Hsp90β (HSP90AB1) (P08238 whole entry): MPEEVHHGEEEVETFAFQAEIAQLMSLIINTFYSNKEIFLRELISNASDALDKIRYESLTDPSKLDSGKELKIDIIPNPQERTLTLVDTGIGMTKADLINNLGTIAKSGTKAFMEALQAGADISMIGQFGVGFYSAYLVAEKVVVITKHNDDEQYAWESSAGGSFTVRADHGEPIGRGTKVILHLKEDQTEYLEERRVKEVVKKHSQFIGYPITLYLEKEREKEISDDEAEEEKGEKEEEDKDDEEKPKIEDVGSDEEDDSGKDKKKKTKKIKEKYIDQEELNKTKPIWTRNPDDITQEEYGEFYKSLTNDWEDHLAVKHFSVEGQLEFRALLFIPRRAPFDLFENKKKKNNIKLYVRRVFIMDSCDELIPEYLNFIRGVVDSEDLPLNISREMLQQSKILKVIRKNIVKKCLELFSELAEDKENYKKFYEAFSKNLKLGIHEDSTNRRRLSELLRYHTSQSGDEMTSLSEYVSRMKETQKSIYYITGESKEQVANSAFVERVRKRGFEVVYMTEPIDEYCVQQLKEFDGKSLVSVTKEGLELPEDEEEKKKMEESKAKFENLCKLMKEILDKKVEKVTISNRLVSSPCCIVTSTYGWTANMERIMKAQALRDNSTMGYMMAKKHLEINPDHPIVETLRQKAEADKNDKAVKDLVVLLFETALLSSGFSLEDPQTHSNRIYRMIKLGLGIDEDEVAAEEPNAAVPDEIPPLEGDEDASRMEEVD

B1: Hop112a (Hop aa. 1-352; TPR1, DP1 and TPR2A) (domain or fragment)
chain: not shown
For the molecule B1, the affinity, expressed as Kd, was 3.59 µM and the stoichiometry N (commonly a count of units in the complex or per binding partner) worked out at 0.5.
